Measurements taken from US12275803B2, “Functionalization of biopolymers with growth factor-binding peptides” (Universiteit Twente, priority 2016, dated 2025).

What was measured:
[1] = system: TGFB1 reporter cell line (Mink Lung Epithelium Cells, PAI-1 promoter luciferase); assay: Luciferase assay in TGFB1 reporter cell line; assay type: cell-based; set-up: dose or concentration left out as unconfirmed; settings: cells on films with immobilized hTGFB1
Description: MLECs were seeded at 64000 cells/cm^2 and allowed to attach overnight at 37° C. in a 5% CO2 incubator. The medium was then replaced by DMEM without FBS and cells incubated for an additional period of 24 hours. Cells were lysed and the luciferase quantified according to the manufacturer's protocol (Promega, E4530). Luciferase values were normalized for DNA content quantified by CyQuant Cell proliferation assay (Invitrogen).

[2] = system: BMP-2 reporter cell line (C2C12 Luc, ID1 promoter luciferase); assay: Luciferase assay in BMP-2 reporter cell line; assay type: cell-based; settings: 2 ng/mL inhibitor; response to immobilized hBMP-2
Description: For cell experiments, the sterile films were washed three times with PBS and incubated with concentrated hBMP-2 in PBS for one hour with gentle agitation. Subsequently, the films were extensively washed with TBST (0.5%) and PBS to remove any traces of the washing buffer prior to cell seeding.
C2C12 Luc express luciferase under the control of a ID1 promoter—a BMP-2 target gene (Zilberberg et al., 2007, BMC Cell Biol. 8(41). DOI: 10.1186/1471-2121-8-41).
C2C12 Luc were seeded on films at 16,000 cells/cm2 in DMEM medium supplemented with 10% FBS and allowed to attach overnight at 37° C. in a 5% CO2 incubator. The cells were lysed the following day and the luciferase quantified according to the manufacturer's protocol (Promega, E4530). Luciferase values were normalized for DNA content quantified by CyQUANT cell proliferation assay (Invitrogen).

HUVECs = assay: Cell survival of HUVECs after starvation; assay type: cell-based, human; settings: 20 ng/mL hVEGF in medium during 24 hours starvation; versus native films without hVEGF
Description: Samples were incubated with 1 μg/mL of VEGF (PeproTech) in 0.5% (v/v) PBS TWEEN®20 (PBST) for one hour with gentle agitation. The films were then washed three times for 10 minutes with 0.5% (v/v) PBST and then with PBS for a further 10 minutes. Next, the films were blocked for one hour with PBS containing 1% (w/v) bovine serum albumin (BSA) and subsequently washed as described above. Afterwards, the films were incubated with a primary antibody (2 μg/mL; rabbit polyclonal anti-human VEGF, PeproTech) in the blocking solution during one hour with agitation. The films were washed as mentioned above and then incubated with a secondary antibody (8 μg/mL; goat anti-rabbit ALEXA FLUOR® 594, Invitrogen) in PBS containing 1% w/v BSA for one hour with gentle agitation. Before image acquisition, the films were washed three times for 10 minutes with […], rinsed three times with PBS and dried under a N2 stream. Fluorescence intensity was quantified using ImageJ. […]
HUVECs at passage 4 were used for experiments. […] Once detached, fresh medium was added to neutralize the trypsin and the cells were counted. […] After 24 hours, the cells were lysed and the DNA content was quantified by CyQUANT cell proliferation assay (Invitrogen), following the manufacturer's instructions.

`Cc1cccc(-c2[nH]c(C(C)(C)C)nc2-c2ccc3c(c2)OCO3)n1.Cl` [SB-431452, 2-(5-benzo[1,3]dioxol-5-yl-2-tert-butyl-3H-imidazol-4-yl)-6-methylpyridine hydrochloride] was tested, and the “luciferase activity in presence of TGF-β1 inhibitor” value [1] was “completely suppressed”.

B1: Noggin: specific BMP-2 inhibitor (protein, UniProt Q13253 28-232, looked up)
Noggin: QHYLHIRPAPSDNLPLVDLIEHPDPIFDPKEKDLNETLLRSLLGGHYDPGFMATSPPEDRPGGGGGAAGGAEDLAELDQLLRQRPSGAMPSEIKGLEFSEGLAQGKKQRLSKKLRRKLQMWLWSQTFCPVLYAWNDLGSRFWPRYVKVGSCFSKRSCSVPEGMVCKPSKSVHLTVLRWRCQRRGGQRCGWIPIQYPIISECKCSC
For B1, the “luciferase activity in presence of BMP-2 inhibitor” value [2] was “completely suppressed”.

B2: soluble VEGF: soluble hVEGF added to the medium during starvation (protein)
chain: APMAEGGGQNHHEVVKFMDVYQRSYCHPIETLVDIFQEYPDEIEYIFKPSCVPLMRCGGCCNDEGLECVPTEESNITMQIMRIKPHQGQHIGEMSFLQHNKCECRPKKDRARQENPCGPCSERRKHLFVQDPQTCKCSCKNTDSRCKARQLELNERTCRCDKPRR
For B2, the “survival of HUVECs (total amount of DNA) with soluble VEGF” value (HUVECs) was “significant increase in the amount of DNA”.
